Measurements as given in patent US20090169546A1.

Biological target: HMG1 purified from calf (bovine) thymus (calf (bovine)) (UniProt P10103)
Test: cell-based or functional assay

Sequence of HMG1 purified from calf (bovine) thymus (calf (bovine)) (P10103 2-215 limits assumed): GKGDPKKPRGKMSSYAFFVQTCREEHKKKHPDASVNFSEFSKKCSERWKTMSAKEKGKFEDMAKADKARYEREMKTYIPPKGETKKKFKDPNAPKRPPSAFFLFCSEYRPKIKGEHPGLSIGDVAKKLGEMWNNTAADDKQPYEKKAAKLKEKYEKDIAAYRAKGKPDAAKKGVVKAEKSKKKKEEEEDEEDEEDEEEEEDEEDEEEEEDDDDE

Substance: RAGE-Fc fusion protein
- IFN-a release from mouse bone marrow cells treated with CpG-A and thymus HMG1: > 95%
